Patent US20250122306A1 (SUTRO BIOPHARMA, published 2025)

B1: Conjugate 6: 2900-A02 Y180/F241/F404/k42-LP1 (antibody, human IgG1, kappa)
heavy: MEVQLVESGGGLVQPGGSLRLSCAASGFTISGYIIHWVRQAPGKGLEWVGYIDPSNGYTYYADSVKGRFTISADTSKNTAYLQMNSLRAEDTAVYYCARDDQSLSSPFDYWGQGTLVTVSSASTKGPSVFPLAPSSKSTSGGTAALGCLVKDYFPEPVTVSWNSGALTSGVHTFPAVLQSSGLSLSSVVTVPSSSLGTQTYICNVNHKPSNTKVDKKVEPKSCDKTHTCPPCPAPELLGGPSVLFPPKPKDTLMISRTPEVTCVVVDVSHEDPEVKFNWYVDGVEVHNAKTKPREEQYNSTYRVVSVLTVLHQDWLNGKEYKCKVSNKALPAPIEKTISKAKGQPREPQVYTLPPSREEMTKNQVSLTCLVKGFYPSDIAVEWESNGQPENNYKTTPPVLDSDGSFLYSKLTVDKSRWQQGNVFSCSVMHEALHNHYTQKSLSLSPGK
light: MDIQMTQSPSSLSASVGDRVTITCRASQDVNTAVAWYQQKPGAPKLLIYSASFLYSGVPSRFSGSRSGTDFTLTISSLQPEDFATYYCQQHYTTPPTFGQGTKVEIKRTVAAPSVFIFPPSDEQLKSGTASVVCLLNNFYPREAKVQWKVDNALQSGNSQESVTEQDSKDSTYSLSSTLTLSKADYEKHKVYACEVTHQGLSSPVTKSFNRGEC
modifications: pAMF at K42 linked to LP1; pAMF at Y180, F241 and F404 (EU), each linked to LP1 (DBCO-Valcit-pAB-hemiasterlin)
B2: SRP2900-C01 (antibody, IgG1, V domains shown)
VH: EVQLVESGGGLVQPGGSLRLSCAASGFTIGSYWIHWVRQAPGKGLEWVGYIDPSNGYTYYADSVKGRFTISADTSKNTAYLQMNSLRAEDTAVYYCARADYYYVDEYWDYWGQGTLVTVSS
VL: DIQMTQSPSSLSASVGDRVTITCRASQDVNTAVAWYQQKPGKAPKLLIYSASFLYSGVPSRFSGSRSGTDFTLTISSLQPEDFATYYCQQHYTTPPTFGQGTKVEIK
B3: SRP2900-A02 (antibody, IgG1, V domains shown)
VH: MEVQLVESGGGLVQPGGSLRLSCAASGFTISGYIIHWVRQAPGKGLEWVGYIDPSNGYTYYADSVKGRFTISADTSKNTAYLQMNSLRAEDTAVYYCARDDQSLSSPFDYWGQGTLVTVSS
VL: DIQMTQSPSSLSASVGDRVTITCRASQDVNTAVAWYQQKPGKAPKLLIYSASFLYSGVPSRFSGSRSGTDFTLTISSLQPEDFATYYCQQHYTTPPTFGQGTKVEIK
B4: SRP2900-C11 (antibody, IgG1, V domains shown)
VH: EVQLVESGGGLVQPGGSLRLSCAASGFTISQYWIHWVRQAPGKGLEWVGYIDPYNGYTYYADSVKGRFTISADTSKNTAYLQMNSLRAEDTAVYYCARDYGSWRIRLDYWGQGTLVTVSS
VL: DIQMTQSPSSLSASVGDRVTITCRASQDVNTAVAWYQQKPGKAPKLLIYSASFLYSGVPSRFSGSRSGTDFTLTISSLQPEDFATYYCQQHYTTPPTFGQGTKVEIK
B5: SRP2900-E02 (antibody, IgG1, V domains shown)
VH: EVQLVESGGGLVQPGGSLRLSCAASGFTISDYVIHWVRQAPGKGLEWVGYIDPSNGYTYYADPVKGRFTISADTSKNTAYLQMNSLRAEDTAVYYCARDPQSFYIAFDYWGQGTLVTVSS
VL: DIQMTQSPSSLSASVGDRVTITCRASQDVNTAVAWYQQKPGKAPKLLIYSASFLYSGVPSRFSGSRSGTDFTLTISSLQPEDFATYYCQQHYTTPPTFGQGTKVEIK
B6: SRP2900-E06 (antibody, IgG1, V domains shown)
VH: EVQLVESGGGLVQPGGSLRLSCAASGFTISGYIIHWVRQAPGKGLEWVGYIDPSNGYTYHADSVKGRFTISADTSKNTAYLQMNSLRAEDTAVYYCARDDQSVSSPFDYWGQGTLVTVSS
VL: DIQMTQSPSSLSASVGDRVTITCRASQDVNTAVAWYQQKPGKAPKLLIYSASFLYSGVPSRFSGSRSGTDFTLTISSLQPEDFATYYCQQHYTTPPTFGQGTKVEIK
B7: SRP2900-E07 (antibody, IgG1, V domains shown)
VH: EVQLVESGGGLVQPGGSLRLSCAASGFTISQYWIHWVRQAPGKGLEWVGYIDPYNGYTYYADSVKGRFTISADTSKNTAYLQMNSLRAEDTAVYYCARDYGSLRVSLDYWGQGTLVTVSS
VL: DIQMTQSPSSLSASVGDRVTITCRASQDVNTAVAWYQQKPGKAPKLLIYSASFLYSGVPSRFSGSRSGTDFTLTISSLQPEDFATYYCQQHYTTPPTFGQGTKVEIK
B8: SRP2900-F02 (antibody, IgG1, V domains shown)
VH: EVQLVESGGGLVQPGGSLRLACAASGFTIGVYIIHWVRQAPGKGLEWVGYIDPSNGYTYYADSVKGRFTISADTSKNTAYLQMNSLRAEDTAVYYCARDDQSVSSPFDYWGQGTLVTVSS
VL: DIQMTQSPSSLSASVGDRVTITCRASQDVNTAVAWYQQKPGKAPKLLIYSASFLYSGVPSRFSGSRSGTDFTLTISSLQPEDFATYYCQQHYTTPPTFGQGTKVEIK
B9: SRP2900-F06 (antibody, IgG1, V domains shown)
VH: EVQLVESGGGLVQPGGSLRLSCAASGFTISIYTIHWVRQAPGKGLEWVGYIDPSNGYTYYADSVKGRLTISADTSKNTAYLQMNSLRAEDTAVYYCARDPQSISSPFDYWGQGTLVTVSS
VL: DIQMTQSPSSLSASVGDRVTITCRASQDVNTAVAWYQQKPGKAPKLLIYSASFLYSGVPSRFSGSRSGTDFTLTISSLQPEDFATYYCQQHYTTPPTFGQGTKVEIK
B10: SRP2900-F08 (antibody, IgG1, V domains shown)
VH: EVQLVESGGGLVQPGGSLRLSCAASGFTIAYYIIHWVRQAPGKGLEWVGYIDPSNGYTYYADSVKGRFTISADTSKNTAYLQMNSLRAEDTAVYYCARDDQSLSSPFDYWGQGTLVTVSS
VL: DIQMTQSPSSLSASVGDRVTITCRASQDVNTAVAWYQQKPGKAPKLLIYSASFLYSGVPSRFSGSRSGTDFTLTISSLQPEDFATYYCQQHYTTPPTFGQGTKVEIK
B11: SRP2900-F09 (antibody, IgG1, V domains shown)
VH: EVQLVESGGGLVQPGGSLRLSCAASGFTIHDYVIHWVRQAPGKGLEWVGYIDPSNGYTYYADSVKGRFTISADTSKNTAYLQMNSLRAEDTAVYYCARDDQSISSPLDYWGQGTLVTVSS
VL: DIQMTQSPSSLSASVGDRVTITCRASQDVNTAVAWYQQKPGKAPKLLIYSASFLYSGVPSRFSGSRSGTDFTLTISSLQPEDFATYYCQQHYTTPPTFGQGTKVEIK
B12: SRP2900-F11 (antibody, IgG1, V domains shown)
VH: EVQLVESGGGLVQPGGSLRLSCAASGFTISGYIIHWVRQAPGKGLEWVGYIDPSNGYTFYADSVKGRFTISADTSKNTAYLRMNSLRAEDTAVYYCARDDQSLSSPFDYWGQGTLVTVSS
VL: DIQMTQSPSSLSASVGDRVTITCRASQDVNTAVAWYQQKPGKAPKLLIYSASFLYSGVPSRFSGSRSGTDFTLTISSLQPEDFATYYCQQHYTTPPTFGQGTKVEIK
B13: SRP2900-G02 (antibody, IgG1, V domains shown)
VH: EVQLVESGGDLVRPGGSLRLSCAASGFTISYYIIHWVRQAPGKGLEWVGYIDPSNGYTYYADSVKGRFTISADTSKNTAYLQMNSLRAEDTAVYYCARDDQSVSSPFEYWGQGTLVTVSS
VL: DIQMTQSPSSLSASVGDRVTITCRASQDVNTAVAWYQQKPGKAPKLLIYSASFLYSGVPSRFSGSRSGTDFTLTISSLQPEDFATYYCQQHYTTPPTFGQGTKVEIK
B14: SRP2900-G03 (antibody, IgG1, V domains shown)
VH: EVQLVESGGGLVQPGGSLRLSCAASGFTINNYIIHWVRQAPGKGLEWVGYIDPSNGYTYYADSVKGRFTISADTSKNTAYLQMNSLRAEDTAVYYCARDPQSLSSPFDYWGQGTLVTVSS
VL: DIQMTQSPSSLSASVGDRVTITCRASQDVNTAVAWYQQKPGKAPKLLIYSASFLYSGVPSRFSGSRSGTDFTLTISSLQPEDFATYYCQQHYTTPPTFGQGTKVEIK
B15: SRP2900-G05 (antibody, IgG1, V domains shown)
VH: EVQLVESGGGLVQPGGLLRLSCAASGFTIAYYVIHWVRQAPGKGLEWVGYIDPSNGYTYYADSVKGRFTISADTSKNTAYLQMNSLRAEDTAVYYCARDDQSLSSPFDYWGQGTLVTVSS
VL: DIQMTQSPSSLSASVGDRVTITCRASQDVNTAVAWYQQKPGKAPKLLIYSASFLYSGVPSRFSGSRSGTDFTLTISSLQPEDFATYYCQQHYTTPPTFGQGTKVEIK
B16: SRP2900-H06 (antibody, IgG1, V domains shown)
VH: EVQLVESGGGLVQPGGSLRLSCAASGFTIAAYIIHWVRQAPGKGLEWVGYIDPSNGYTYYADSVKGRFTISADTSKNTAYLQMNSLRAEDTAVYYCARDDQSFSSPFDYWGQGTLVTVSS
VL: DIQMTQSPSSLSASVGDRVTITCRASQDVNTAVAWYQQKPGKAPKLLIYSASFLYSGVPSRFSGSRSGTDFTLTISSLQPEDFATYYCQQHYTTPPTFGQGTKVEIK
B17: SRP2900-H07 (antibody, IgG1, V domains shown)
VH: EVQLVESGGGLVQPGGSLRLSCAASGFNIAYYTIHWVRQAPGKGLEWVGYIDPSNGYTYYADSVKGRFTISADTSKNTAYLQMNSLRAEDTAVYYCARDPQSFSSPFDYWGQGTLVTVSS
VL: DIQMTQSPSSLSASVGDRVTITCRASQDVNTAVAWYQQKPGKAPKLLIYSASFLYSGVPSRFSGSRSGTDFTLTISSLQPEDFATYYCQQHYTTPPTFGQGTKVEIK

Key:
[1] = biological target: human tissue factor on cells (human, UniProt P13726 33-295); experiment: cell-based or functional assay
[2] = biological target: T1, human tissue factor (human TF, Lake Pharma) (human, UniProt P13726 33-251, limits assumed); experiment: Biacore SPR, single-point off-rate (100 nM antigen), antibody captured on anti-Fc
T1 construct: bought recombinant antigen; also called CD142
Experimental: (§1) Anti-Fc polyclonal antibodies were immobilized onto a CM4 chip (Cytiva #BR100534) using amine coupling chemistry (Human Antibody Capture Kit, Cytiva #BR100839). The immobilization steps were carried out at a flow rate of 25 μL/min in 1×HBS-EP+buffer (Cytiva #BR100669). The sensor surfaces were activated for 7 min with a mixture of N-hydroxysuccinimide (NHS, 0.05 M) and 1-ethyl-3-(3-dimethylaminopropyl)-carbodiimide (EDC, 0.2 M). The anti-Fc polyclonal antibodies were injected over all 4 flow cells at a concentration of 25 μg/mL in 10 mM sodium acetate, pH 4.5, for 7 min. Ethanolamine (1 M, pH 8.5) was injected for 7 min to block any remaining activated groups.
(§2) Off-rate and kinetic binding experiments were performed at 25° C. using 1×HBS-EP+buffer. Antibodies were injected over the anti-Fc surface at a concentration of 3 μg/mL for 12 seconds at a flow rate of 10 μL/min on flow cells 2, 3 and 4, followed by a buffer wash for 30 seconds at the same flow rate. Single point off-rate analysis was carried out using an antigen concentration of 100 nM. […] After capturing ligand (antibody) on the anti-Fc surface, the analyte (human TF, Lake Pharma; cynomolgus TF, Sino Bio #90885-C08H; mouse TF, R&D Systems #3178-PA) was bound for 180 seconds, followed by a 420 second dissociation phase at a flow rate of […]. Between each ligand capture and analyte binding cycle, regeneration was carried out using 2 injections of 10 mM glycine pH 2.0 for 30 seconds at 30 μL/min, followed by a 30 second buffer wash step.

[3] = biological target: T2, cynomolgus tissue factor (cynomolgus TF, Sino Bio #90885-C08H) (cynomolgus monkey, UniProt P13726 33-251 (human entry)); experiment: as above
T2 construct: bought recombinant antigen; also called cyno TF
T2 chain: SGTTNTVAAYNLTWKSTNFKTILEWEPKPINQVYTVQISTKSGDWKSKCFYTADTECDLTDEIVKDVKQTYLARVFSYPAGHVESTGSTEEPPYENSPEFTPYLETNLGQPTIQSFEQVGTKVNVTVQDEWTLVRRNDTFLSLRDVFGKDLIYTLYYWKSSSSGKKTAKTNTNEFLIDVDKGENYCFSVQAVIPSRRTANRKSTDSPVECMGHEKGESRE
Experimental: as §1, §2

[4] = biological target: tissue factor reagent of the Tissue Factor Activity Assay Kit (Abcam #ab108906) (UniProt P13726 33-295, limits assumed); experiment: cell-based or functional assay

| Binder | koff [2] | koff [3] | FX conversion (% inhibition), 1000 nM antibody [4] | also measured |
| --- | --- | --- | --- | --- |
| B1 |  |  |  | cell killing EC50, HCC1954 (TF+++) [1]: 0.085 nM; cell killing EC50, HCC1954, with 0.5 uM unconjugated mAb 40 [1]: > 100 nM; cell killing EC50, NCI-H292 (TF++++) [1]: 0.044 nM; cell killing EC50, NCI-H292, with 0.5 uM unconjugated mAb 40 [1]: > 100 nM; cell killing EC50, NCI-H1975 (TF++) [1]: ~5 nM; cell killing EC50, NCI-H1975, with 0.5 uM unconjugated mAb 40 [1]: > 100 nM; cell killing Span, HCC1954 (TF+++) [1]: 93%; cell killing Span, NCI-H292 (TF++++) [1]: 86%; cell killing Span, NCI-H1975 (TF++) [1]: 71% |
| B2 | 0.00183 s⁻¹ | 0.00118 s⁻¹ | 16.4% |  |
| B3 | 0.00116 s⁻¹ | 0.000761 s⁻¹ | 0.21% |  |
| B4 | 0.000842 s⁻¹ | 0.00257 s⁻¹ | 12.4% |  |
| B5 | 0.000528 s⁻¹ | 0.00182 s⁻¹ | 17.7% |  |
| B6 | 0.000978 s⁻¹ | 0.000689 s⁻¹ | 18.7% |  |
| B7 | 0.000511 s⁻¹ | 0.00113 s⁻¹ | 15.6% |  |
| B8 | 0.00274 s⁻¹ | 0.000696 s⁻¹ | 0.23% |  |
| B9 | 0.00423 s⁻¹ | 0.00184 s⁻¹ | 1.72% |  |
| B10 | 0.00131 s⁻¹ | 0.000665 s⁻¹ | 9.78% |  |
| B11 | 0.00139 s⁻¹ | 0.00215 s⁻¹ | 5.23% |  |
| B12 | 0.00204 s⁻¹ | 0.00115 s⁻¹ | 6.38% |  |
| B13 | 0.00415 s⁻¹ | 0.00141 s⁻¹ | -0.11% |  |
| B14 | 0.000699 s⁻¹ | 0.00195 s⁻¹ | 20% |  |
| B15 | 0.00115 s⁻¹ | 0.000667 s⁻¹ | 12.1% |  |
| B16 | 0.00347 s⁻¹ | 0.000648 s⁻¹ | 4.04% |  |
| B17 | 0.00205 s⁻¹ | 0.0013 s⁻¹ | 13.5% |  |
